From the Human Domainome abundance scans (Beltran et al. 2025)
± gives the uncertainty stated by the source.

B1: TOX high mobility group box family member 3, residues 256 to 323; numbered along this chain, O15405 (parent)
chain: QKPVSAYALFFRDTQAAIKGQNPNATFGEVSKIVASMWDSLGEEQKQVYKRKTEAAKKEYLKALAAYR
B2: POU domain, class 3, transcription factor 1, residues 247 to 324; numbered along this chain, Q03052 (parent)
chain: EDAPSSDDLEQFAKQFKQRRIKLGFTQADVGLALGTLYGNVFSQTTICRFEALQLSFKNMCKLKPLLNKWLEETDSSS

Variants of: B1
Experiment: abundance fitness (aPCA) (normalised: wild type 0, dead -1); higher = more abundant; growth selection in yeast, the domain comes from the species named
Conditions: Homo sapiens

Variant	abundance fitness
E59A	-0.122 ± 0.061
E59C	-0.366 ± 0.15
E59D	0.047 ± 0.11
E59F	-0.443 ± 0.14
E59G	-0.242 ± 0.071
E59H	-0.744 ± 0.34
E59I	-0.663 ± 0.33
E59K	0.024 ± 0.084
E59L	-0.39 ± 0.058
E59M	-0.51 ± 0.16
E59N	-0.246 ± 0.15
E59P	-0.061 ± 0.085
E59Q	-0.205 ± 0.067
E59R	-0.162 ± 0.053
E59S	-0.166 ± 0.068
E59T	-0.083 ± 0.1
E59V	-0.3 ± 0.071
E59W	-0.573 ± 0.085
E59Y	-0.577 ± 0.19
Y60A	0.043 ± 0.059
Y60E	0.08 ± 0.062
Y60F	0.068 ± 0.29
Y60G	-0.101 ± 0.091
Y60I	-0.556 ± 0.2
Y60K	0.128 ± 0.073

Variant	abundance fitness
Y60N	-0.236 ± 0.18
Y60P	-0.052 ± 0.076
Y60Q	0.128 ± 0.069
Y60R	-0.129 ± 0.069
Y60S	0.039 ± 0.057
Y60T	0.148 ± 0.059
Y60V	-0.073 ± 0.05
Y60W	-0.258 ± 0.12
L61C	-0.014 ± 0.085
L61D	0.319 ± 0.085
L61E	-0.064 ± 0.16
L61F	-0.213 ± 0.058
L61G	0.08 ± 0.11
L61H	0.134 ± 0.034
L61I	-0.029 ± 0.062
L61K	0.247 ± 0.076
L61M	-0.138 ± 0.059
L61N	-0.068 ± 0.13
L61Q	0.146 ± 0.16
L61R	0.015 ± 0.045
L61S	0.22 ± 0.049
L61T	0.135 ± 0.065
L61V	0.119 ± 0.059
L61W	-0.19 ± 0.08
L61Y	-0.087 ± 0.099

Variant	abundance fitness
K62A	-0.022 ± 0.062
K62C	-0.3 ± 0.078
K62D	0.019 ± 0.078
K62E	-0.006 ± 0.059
K62F	-0.519 ± 0.082
K62G	-0.133 ± 0.05
K62I	-0.538 ± 0.093
K62L	-0.344 ± 0.049
K62M	-0.205 ± 0.057
K62N	-0.069 ± 0.069
K62P	-0.142 ± 0.05
K62Q	-0.118 ± 0.07
K62R	-0.002 ± 0.038
K62S	-0.092 ± 0.043
K62V	-0.458 ± 0.059
K62W	-0.838 ± 0.11
K62Y	-0.396 ± 0.063
A63C	-0.105 ± 0.089
A63D	0.08 ± 0.081
A63E	0.285 ± 0.056
A63F	-0.637 ± 0.22
A63G	0.201 ± 0.044
A63H	0.155 ± 0.079
A63I	-0.34 ± 0.076
A63K	0.173 ± 0.062

Variant	abundance fitness
A63L	-0.395 ± 0.047
A63M	-0.178 ± 0.059
A63N	0.107 ± 0.074
A63P	0.111 ± 0.048
A63Q	0.119 ± 0.064
A63S	0.132 ± 0.043
A63V	-0.212 ± 0.055
A63W	-0.178 ± 0.05
A63Y	-0.167 ± 0.068
L64A	-0.093 ± 0.093
L64C	0.153 ± 0.066
L64D	0.323 ± 0.076
L64E	0.354 ± 0.066
L64F	-0.273 ± 0.095
L64G	0.241 ± 0.05
L64H	0.285 ± 0.085
L64I	0.146 ± 0.1
L64K	0.205 ± 0.06
L64M	-0.031 ± 0.15
L64N	0.173 ± 0.1
L64P	0.33 ± 0.071
L64R	0.088 ± 0.054
L64S	0.128 ± 0.057
L64T	0.236 ± 0.056
L64V	0.131 ± 0.05

Variant	abundance fitness
L64W	-0.227 ± 0.08
L64Y	-0.172 ± 0.075
A65D	0.078 ± 0.084
A65E	0.113 ± 0.047
A65F	-0.111 ± 0.11
A65G	0.067 ± 0.047
A65H	-0.081 ± 0.12
A65K	0.036 ± 0.081
A65L	-0.03 ± 0.056
A65N	0.098 ± 0.16
A65P	0.117 ± 0.069
A65Q	0.004 ± 0.097
A65R	-0.037 ± 0.059
A65S	0.042 ± 0.069
A65T	0.081 ± 0.093
A65V	-0.049 ± 0.048
A65W	-0.082 ± 0.079
A65Y	-0.48 ± 0.38
A66C	-0.038 ± 0.11
A66D	0.509 ± 0.12
A66E	0.218 ± 0.067
A66F	-0.453 ± 0.08
A66H	0.124 ± 0.088
A66I	-0.333 ± 0.15
A66K	-0.221 ± 0.19

Variant	abundance fitness
A66M	-0.097 ± 0.068
A66N	0.135 ± 0.075
A66P	0.182 ± 0.05
A66Q	0.093 ± 0.06
A66R	0.056 ± 0.05
A66S	0.061 ± 0.052
A66T	0.184 ± 0.061
A66V	0.064 ± 0.075
A66W	-0.103 ± 0.067
A66Y	-0.111 ± 0.12
Y67A	0.263 ± 0.077
Y67C	0.208 ± 0.064
Y67D	0.256 ± 0.085
Y67E	0.138 ± 0.35
Y67F	-0.106 ± 0.077
Y67G	0.263 ± 0.053
Y67H	0.155 ± 0.081
Y67I	-0.012 ± 0.073
Y67K	0.244 ± 0.093
Y67L	-0.044 ± 0.057
Y67M	0.161 ± 0.082
Y67N	0.288 ± 0.076
Y67P	0.352 ± 0.088
Y67Q	0.281 ± 0.17
Y67R	0.306 ± 0.063

Variant	abundance fitness
Y67T	0.274 ± 0.078
Y67V	0.323 ± 0.069
Y67W	-0.158 ± 0.17
R68A	-0.07 ± 0.1
R68E	0.197 ± 0.058
R68F	-0.33 ± 0.25
R68G	-0.01 ± 0.078
R68H	-0.137 ± 0.17
R68I	-0.65 ± 0.22
R68K	0.101 ± 0.11
R68L	-0.126 ± 0.087
R68M	-0.247 ± 0.11
R68N	0.198 ± 0.24
R68P	0.297 ± 0.066
R68Q	-0.044 ± 0.089
R68T	-0.007 ± 0.078
R68V	-0.355 ± 0.063
R68W	-0.322 ± 0.22
R68Y	-0.292 ± 0.11

Variants of: B2
Experiment: as above
Conditions: Homo sapiens

Variant	abundance fitness
L66W	-0.33 ± 0.066
F42S	-0.365 ± 0.071
G35C	-0.299 ± 0.12
T36S	0.134 ± 0.07
L32S	0.152 ± 0.056
D8T	-0.454 ± 0.18
F42K	-0.656 ± 0.14
I21A	-0.391 ± 0.089
A28R	0.069 ± 0.047
F25M	-0.276 ± 0.13
V41L	-0.127 ± 0.057
T36Y	-0.416 ± 0.19
K22A	0.058 ± 0.057
G39P	-0.124 ± 0.089
V30Q	-0.759 ± 0.28
G39I	-0.488 ± 0.33
F12W	-0.362 ± 0.12
T45M	-0.205 ± 0.08
E73Q	0.041 ± 0.077
W70F	0.086 ± 0.11
K64V	-0.164 ± 0.064
G35A	-0.097 ± 0.067
T45R	0.016 ± 0.041
K14W	-0.419 ± 0.11

Variant	abundance fitness
L67E	-0.951 ± 0.16
D29F	-0.835 ± 0.47
S5F	-0.143 ± 0.17
P65N	-0.266 ± 0.16
L66G	-0.78 ± 0.075
S43C	-0.485 ± 0.14
K69C	-0.361 ± 0.095
I47V	-0.228 ± 0.06
Q54E	0.011 ± 0.064
T46V	-0.096 ± 0.066
F42R	-0.493 ± 0.06
C61E	-0.078 ± 0.062
F50W	-0.742 ± 0.1
F42M	0.014 ± 0.072
S56G	-0.198 ± 0.046
I47L	-0.304 ± 0.073
F12I	-0.553 ± 0.45
P4A	0.008 ± 0.067
W70C	-0.762 ± 0.2
D2W	0.001 ± 0.08
C61R	-0.065 ± 0.043
L63T	-0.582 ± 0.15
Q27C	0.069 ± 0.12
L71V	-0.356 ± 0.069

Variant	abundance fitness
A28K	-0.111 ± 0.11
A3C	0.172 ± 0.11
S5M	0.141 ± 0.078
L34D	-0.415 ± 0.21
F12Q	-0.844 ± 0.31
K62R	-0.15 ± 0.053
D2A	0.217 ± 0.066
G24A	-0.739 ± 0.13
D8I	-0.529 ± 0.28
T26S	-0.093 ± 0.075
R19G	-0.495 ± 0.079
M60C	-0.604 ± 0.25
L71T	-0.988 ± 0.23
N40H	-0.179 ± 0.13
K22P	-1.04 ± 0.28
F50H	-1.09 ± 0.48
V30T	-0.807 ± 0.21
S77F	-0.243 ± 0.098
S43W	-0.371 ± 0.087
G39D	-0.192 ± 0.1
S43F	-1.04 ± 0.46
Q44S	0.025 ± 0.055
K58A	-0.096 ± 0.055
L53P	-0.759 ± 0.29

Variant	abundance fitness
K14D	-0.78 ± 0.35
L53F	-0.256 ± 0.14
L71C	-0.712 ± 0.13
L34G	-0.866 ± 0.12
E1L	0.135 ± 0.086
D29A	-0.134 ± 0.07
D8Y	-0.826 ± 0.43
V41Q	0.093 ± 0.062
Q11K	0.057 ± 0.077
E72A	-0.193 ± 0.05
W70P	-0.93 ± 0.21
K69G	-0.119 ± 0.041
V30A	-0.411 ± 0.1
F57T	-0.047 ± 0.091
N68S	0.02 ± 0.055
S56A	-0.472 ± 0.071
A3N	0.444 ± 0.11
T36H	-0.299 ± 0.15
L37G	-0.275 ± 0.061
S5N	0.119 ± 0.13
E51P	-0.781 ± 0.14
P4F	-0.366 ± 0.2
A3Y	-0.033 ± 0.28
D75K	-0.207 ± 0.15

Variant	abundance fitness
Q18H	0.031 ± 0.12
Q11E	-0.002 ± 0.072
E73I	-0.351 ± 0.22
S6H	0.308 ± 0.14
T26D	-0.86 ± 0.41
L9Q	-0.355 ± 0.1
A28M	-0.149 ± 0.083
S6G	0.321 ± 0.041
A3G	-0.053 ± 0.063
L23A	-0.226 ± 0.075
S78N	0.256 ± 0.28
L55Y	-0.46 ± 0.2
C48H	-0.021 ± 0.11
Q27T	-0.062 ± 0.097
E51F	-0.756 ± 0.17
A33I	-0.317 ± 0.2
L67W	-0.81 ± 0.1
T46Y	-0.037 ± 0.2
E1D	0.359 ± 0.11
L37I	0.11 ± 0.15
D2E	0.41 ± 0.068
L63R	-0.766 ± 0.093
E73Y	-0.197 ± 0.15
A28S	-0.237 ± 0.077

Variant	abundance fitness
D2Y	0.197 ± 0.13
T36N	-0.025 ± 0.17
Q15F	-0.122 ± 0.37
C61M	-0.036 ± 0.064
E1T	0.088 ± 0.14
Q11A	-0.087 ± 0.07
F16K	-0.61 ± 0.19
L71A	-0.369 ± 0.077
W70L	-0.549 ± 0.072
Q18P	-1.16 ± 0.48
A3H	0.258 ± 0.15
L9W	-0.365 ± 0.091
E72M	0.037 ± 0.057
A28C	-0.239 ± 0.12
Y38Q	-0.173 ± 0.094
S77L	-0.098 ± 0.045
E73G	-0.196 ± 0.042
Q27K	-0.257 ± 0.15
A13K	-0.402 ± 0.15
S6E	0.223 ± 0.069
L9E	-0.54 ± 0.18
C48G	0.032 ± 0.043
L55H	-0.359 ± 0.18
A28W	-0.371 ± 0.09

Variant	abundance fitness
E73D	0.267 ± 0.082
P4Y	0.169 ± 0.26
S76I	-0.426 ± 0.21
S56P	0.09 ± 0.073
K14L	-0.159 ± 0.076
E51M	-0.503 ± 0.28
A28D	-0.317 ± 0.26
P4T	0.019 ± 0.083
Q15I	0.2 ± 0.21
L37D	-0.35 ± 0.14
L55M	-0.132 ± 0.095
S43L	-0.872 ± 0.12
D29Q	0.184 ± 0.09
T36R	0.089 ± 0.046
V30K	-0.425 ± 0.14
D2M	0.342 ± 0.082
N40A	-0.179 ± 0.057
I21K	-0.349 ± 0.12
A52Q	0.021 ± 0.085
K14T	-0.03 ± 0.1
I47A	-0.765 ± 0.12
